Assay results published in patent US20080019962A1.
Blank lines part the entries; values can stand above or below the binder they belong to.

Columns and labels:
[1] = target: protease domain of Endotheliase-2 (ET2) (human) (UniProt Q9BYE2); test: continuous in vitro enzyme assay on rET2, Fab
[2] = target: protease domain of Endotheliase-2 (ET2) (human) (UniProt Q9BYE2); test: continuous in vitro enzyme assay, inhibition of ET2 protease activity by soluble Fab
[3] = target: protease domain of Endotheliase-2 (ET2) (human) (UniProt Q9BYE2); test: continuous in vitro enzyme assay on rET2, IgG1

protease domain of Endotheliase-2 (ET2) (human), sequence (Q9BYE2 other isoform, or with tags, fused parts or gaps limits assumed): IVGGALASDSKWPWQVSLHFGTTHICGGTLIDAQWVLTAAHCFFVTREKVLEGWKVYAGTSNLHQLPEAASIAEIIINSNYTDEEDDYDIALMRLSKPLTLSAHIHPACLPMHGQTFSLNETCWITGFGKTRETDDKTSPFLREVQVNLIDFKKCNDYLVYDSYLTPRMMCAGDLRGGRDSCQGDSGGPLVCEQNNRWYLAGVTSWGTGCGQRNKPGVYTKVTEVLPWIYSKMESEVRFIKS

B2: C9 IgG1 antibody (Fab C9 reformatted) (antibody, V domains shown)
VH: EVQLLESGGGLVQPGGSLRLSCAASGFTFSRYPMFWVRQAPGKGLEWVSYISSSGGFTGYADSVKGRFTISRDNSKNTLYLQMNSLRAEDTAVYYCARGGPRGNKYYFDYWGQGTLVTVSS
VL: QSVLTQPASVSGSPGQSITISCTGTSSDVGHYNYVSWYQQHPGKAPKVMIYDVSSRPSGVSDRFSGSKSGNTASLAISGLQAEDEADYYCSSYTSGDTLYVFGTGTKVTVLG
- Ki [3]: 0.11 nM

B3: Fab A2 (Fab, V domains shown)
VH: EVQLLESGGGLVQPGGSLRLSCAASGFTFSRYRMYWVRQAPGKGLEWVSSISPSGGDTRYADSVKGRFTISRDNSQNTLYLQMNSLRAEDTAVYYCARGGPRGNKYYFDYWGQGTLVTVSS
VL: DIQMTQSPSFLSAFVGDRVTITCRASQDIRSDLAWYQQTPGKAPKLLIYAASTLKDGAPSRFSGSGSGTEFTLTISSLHPEDLATYYCQHLNGHPAFGPGTKVNIQR
- Ki [1]: 0.15 nM
- Ki [2]: 0.16 nM

B6: D5 IgG1 antibody (Fab D5 reformatted) (antibody, V domains shown)
VH: EVQLLESGGGLVQPGGSLRLSCAASGFTFSRYDMHWVRQAPGKGLEWVSSISSSGGYTAYADSVKGRFTISRDNSKNTLYLQMNSLRAEDTAVYYCARGARGTSQGYWGQGTLVTVSS
VL: DIQMTQSPGTLSLSPGERGTLSCRASQFVSYSYLAWYQQKPGQAPRLLIYGASSRAKGIPDRFSGSGSGTDFTLTITRLEPEDFAVYYCQQYVPSVPWTFGQGTKVEVKR
- Ki [3]: 0.086 nM

Continued, values first:

- Ki [1]: 0.095 nM
- Ki [2]: 0.09 nM
B1: Fab D2 (Fab, V domains shown)
VH: EVQLLESGGGLVQPGGSLRLSCAASGFTFSRYRMYWVRQAPGKGLEWVSSISPSGGDTRYADSVKGRFTISRDNSQNTLYLQMNSLRAEDTAVYYCARGGPRGNKYYFDYWGQGTLVTVSS
VL: DIQMTQSPSSLSASVGDRVTITCRASQTIDNYLNWYQQKPGKAPKLVVYAASTLQTRVPSRFSGSGSGTDFTLTIDSLKPEDFATYFCQQGFSNPWTFGQGTTVAMIR

- Ki [1]: 0.31 nM
- Ki [2]: 0.26 nM
B4: Fab C9 (Fab, V domains shown)
VH: EVQLLESGGGLVQPGGSLRLSCAASGFTFSRYPMFWVRQAPGKGLEWVSYISSSGGFTGYADSVKGRFTISRDNSKNTLYLQMNSLRAEDTAVYYCARGGPRGNKYYFDYWGQGTLVTVSS
VL: QSVLTQPASVSGSPGQSITISCTGTSSDVGHYNYVSWYQQHPGKAPKVMIYDVSSRPSGVSDRFSGSKSGNTASLAISGLQAEDEADYYCSSYTSGDTLYVFGTGTKVTVLG

- Ki [1]: 0.07 nM
- Ki [2]: 0.07 nM
B5: Fab D5 (Fab, V domains shown)
VH: EVQLLESGGGLVQPGGSLRLSCAASGFTFSRYDMHWVRQAPGKGLEWVSSISSSGGYTAYADSVKGRFTISRDNSKNTLYLQMNSLRAEDTAVYYCARGARGTSQGYWGQGTLVTVSS
VL: DIQMTQSPGTLSLSPGERGTLSCRASQFVSYSYLAWYQQKPGQAPRLLIYGASSRAKGIPDRFSGSGSGTDFTLTITRLEPEDFAVYYCQQYVPSVPWTFGQGTKVEVKR
